Paper doi:10.1101/2020.06.26.173310
Like-named read-outs stand apart in the source and are kept apart here.

Tests used:
[1] = biological target: response regulator from Deinococcus radiodurans (DrRR) (Deinococcus radiodurans strain R1) (UniProt Q9RZA5); assay: SPR
[2] = biological target: response regulator from Deinococcus radiodurans (DrRR) (Deinococcus radiodurans strain R1) (UniProt Q9RZA5); assay: SPR; remark: listed apart in the source
[3] = biological target: response regulator from Deinococcus radiodurans (DrRR) (Deinococcus radiodurans strain R1) (UniProt Q9RZA5); assay: SPR; remark: listed apart in the source
[4] = biological target: response regulator from Agrobacterium fabrum (AtRR) (Agrobacterium fabrum strain C58) (UniProt Q7CY46); assay: SPR
[5] = biological target: bacteriophytochrome from Deinococcus radiodurans (DrBphP) (Deinococcus radiodurans strain R1) (UniProt Q9RZA4); assay: ITC
bacteriophytochrome from Deinococcus radiodurans (DrBphP) (Deinococcus radiodurans strain R1), sequence (Q9RZA4 whole entry): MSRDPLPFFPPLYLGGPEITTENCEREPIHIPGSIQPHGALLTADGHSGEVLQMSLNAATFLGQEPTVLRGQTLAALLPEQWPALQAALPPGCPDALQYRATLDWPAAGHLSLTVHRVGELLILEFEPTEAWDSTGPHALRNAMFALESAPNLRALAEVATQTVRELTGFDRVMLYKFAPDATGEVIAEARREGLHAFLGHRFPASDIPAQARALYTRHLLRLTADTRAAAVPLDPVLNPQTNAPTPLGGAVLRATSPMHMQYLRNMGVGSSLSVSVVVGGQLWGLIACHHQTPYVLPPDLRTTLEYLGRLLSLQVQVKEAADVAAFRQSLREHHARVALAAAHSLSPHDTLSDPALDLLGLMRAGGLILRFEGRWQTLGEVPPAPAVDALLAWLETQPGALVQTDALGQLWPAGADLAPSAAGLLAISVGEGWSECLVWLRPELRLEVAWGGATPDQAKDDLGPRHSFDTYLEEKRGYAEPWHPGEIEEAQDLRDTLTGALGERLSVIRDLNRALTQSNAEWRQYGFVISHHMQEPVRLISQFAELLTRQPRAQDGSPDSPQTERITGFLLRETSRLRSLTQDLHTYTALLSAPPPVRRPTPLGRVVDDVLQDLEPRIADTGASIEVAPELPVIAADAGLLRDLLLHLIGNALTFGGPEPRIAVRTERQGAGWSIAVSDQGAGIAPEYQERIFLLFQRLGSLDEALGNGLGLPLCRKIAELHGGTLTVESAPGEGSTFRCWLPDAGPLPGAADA

[6] = biological target: bacteriophytochrome from Deinococcus radiodurans (DrBphP) (Deinococcus radiodurans strain R1) (UniProt Q9RZA4); assay: ITC; remark: listed apart in the source

Work on “bacteriophytochrome from Deinococcus radiodurans (DrBphP) (from UniProt Q9RZA4 1-755) (natural protein)” yielded a Kd [1] of 10 µM, a Kd [2] of 60 µM and a Kd [3] of 43 µM. It also gave a stoichiometry N [3] of 1.

Work on “phytochrome 1 from Agrobacterium fabrum strain C58 (AgP1) (from UniProt Q7CY45 1-736) (natural protein)” yielded a Kd [4] of over 200 µM.

In the case of “response regulator from Deinococcus radiodurans (DrRR) (from UniProt Q9RZA5 1-149) (natural protein)”, the Kd [5] is reported as 35 µM, the Kd [6] is reported as 10.5 µM and the stoichiometry N [6] is reported as 1.
